According to paper doi:10.1101/2020.12.28.424526 (bioRxiv, 2020):
Each block holds one molecule with its values, some of them ahead of it.

Assays:
[1] = molecular target: 5'-3' exoribonuclease-2 (XRN-2) (C. elegans (endogenous in worm lysate)) (UniProt Q9U299); assay: SDS-PAGE of the RNA-affinity purified complex
[2] = molecular target: T1, 5'-3' exoribonuclease-2 (XRN-2) (C. elegans (endogenous in worm lysate), UniProt Q9U299 1-975); assay: SDS-PAGE of the RNA-affinity purified complex
T1 sequence (looked up): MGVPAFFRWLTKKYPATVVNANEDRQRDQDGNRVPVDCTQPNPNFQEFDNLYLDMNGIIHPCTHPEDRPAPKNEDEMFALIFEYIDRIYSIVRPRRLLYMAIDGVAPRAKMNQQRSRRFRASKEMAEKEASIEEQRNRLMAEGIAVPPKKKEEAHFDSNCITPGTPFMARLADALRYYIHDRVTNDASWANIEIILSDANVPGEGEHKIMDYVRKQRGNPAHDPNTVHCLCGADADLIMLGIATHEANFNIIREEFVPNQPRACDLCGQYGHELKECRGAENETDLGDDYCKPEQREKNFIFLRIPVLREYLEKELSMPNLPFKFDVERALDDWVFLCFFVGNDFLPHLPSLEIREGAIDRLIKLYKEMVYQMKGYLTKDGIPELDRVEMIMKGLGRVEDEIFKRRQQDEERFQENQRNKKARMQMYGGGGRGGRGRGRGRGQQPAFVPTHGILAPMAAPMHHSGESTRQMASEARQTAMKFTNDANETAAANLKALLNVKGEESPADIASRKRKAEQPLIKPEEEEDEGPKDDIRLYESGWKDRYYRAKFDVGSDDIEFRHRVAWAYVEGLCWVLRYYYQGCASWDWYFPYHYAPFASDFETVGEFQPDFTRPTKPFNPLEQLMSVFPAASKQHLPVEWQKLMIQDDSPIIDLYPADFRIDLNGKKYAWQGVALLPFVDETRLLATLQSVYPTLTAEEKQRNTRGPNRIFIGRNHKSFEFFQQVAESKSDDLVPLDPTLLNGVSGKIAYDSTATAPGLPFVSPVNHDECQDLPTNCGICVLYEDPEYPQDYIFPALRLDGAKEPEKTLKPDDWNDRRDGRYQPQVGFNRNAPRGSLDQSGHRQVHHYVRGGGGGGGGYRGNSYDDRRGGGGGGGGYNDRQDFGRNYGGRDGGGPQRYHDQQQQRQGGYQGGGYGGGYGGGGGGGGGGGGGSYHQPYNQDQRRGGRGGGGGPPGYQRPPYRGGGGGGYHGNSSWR

recombinant XRN-2 = molecular target: T2, recombinant XRN-2 (C. elegans, UniProt Q9U299 1-975)
T2 sequence (looked up): T1 sequence (looked up)

Molecule: NOL-58 (natural protein)
stoichiometry N [1]: 1

Molecule: miRNasome-1.4 (B0024.11) (natural protein)
stoichiometry N [1]: 1

B3: recombinant NOL-58 (natural protein, C. elegans, UniProt O45012 1-487, looked up)
chain: MLVLFEVAAGYAVFKLSNEKKLKNVDNIWEEFSTAEKAQENLQLVSFKKFKTTAGAVEATSEITEGKLSKTLKKLLKSSVDETEKLAVGDAKLGNLIKEKLSLNCVHDSSINELMRGVRAHIEDLLAEHKEEMNAMNLAVAHSLARYKVKFNPEKIDTMIVQAVSLLDDLDKELNNYVMRVREWYGWHFPELGKTIQDHQAYAKIIKAIGMRQNCINTDLSSILPEELEEKVKEDAEISMGTDISDIDLIHIKGLCDQVIELSAYRAQLFDYLKNRMTALAPNLTVLLGELVGARLISHAGSLVSLAKAPASTIQILGAEKALFRALKTKKDTPKYGLIYHAQLITQAPPKVKGKMARKLAAKCSLATRIDALSDESATNEIGIECRAALENVLRTESERGPSKNKSFGSHRHDKYEFKSETYEYDASADTPASRKHKRFDDNEESTNAIKKMKIEEVKEEDEAEPEKKKKKKEKKAKKADTDSDEE
stoichiometry N (recombinant XRN-2): 1

B4: recombinant miRNasome-1.4 (natural protein, C. elegans, UniProt Q17426 1-577, looked up)
chain: METEFGLTEYASEHTITPVPCLLKEMYSDFIVQEILADHTVLAIPSPDVVLESTGSKKEDIEIEECVAKPDCISEETLAALNDRFSTKGDPVLVKVDDLSKEDRKSIHHFIRERYAGVLITETKEDGILVSHGHTKSSRKRKLWDEKVPKECHFTICKENKETSFACQLIAKFLNVGPNNIRTHGIKDKRAVTSQRVSVTKVHERTILDLNSKLRGIRVFGCEYKDDPVQMGAHWGNRFSIVLRSLPDDSEQLLHQRLETFQNTGFINYFGTQRFGSRSSTTAEIGLAIVKRDWEKAVKMIMTNAMPDHLGYGSVGYAAKCFSQTGDARKAFSKLKGAQAFATVEGNILKCLSKGGTWQNCITEAIPIQSRSLYVHAYQSLIWNKVASRRVKEYGTRVHESDVGANGFSLGEHATHYDIHIPLPGENLPFEGSYGAKWISELLEEDGLTQSSFTALKDRFSLGESSRCLFVEAKELKWKFIRYGNARDLLQDGLQTRAIPEAEQKGPLLALQIQFSLISGSYATVALREVTGSDMGKKAMRDASFKTRGDDEKTEENVLEEKGSDDANELNLVSEDQ
stoichiometry N (recombinant XRN-2): 1

Results, then the molecule that gave them:

stoichiometry N [2]: 1
B1: partner of XRN two-1 (PAXT-1) (natural protein, C. elegans (endogenous in worm lysate), UniProt Q21738 1-335, looked up)
chain: MGKLEDVEAEKKLWESDDAWELRKAFMLAHYDDYPKIQLQCLSQLFINVTLLGCEYSQTLMQKIRTMGAGIAANKDRTKTGSYVKASAAKKRQAVKTSDLEGASDESKKVKMEKSPSPVARESFDERLGKLKASLAMTPHHLTGEQMMKTATNSCLMKWHVNKINQKIEITIDRYVAFRHTFSQYCVDPRDCAINTLIESILSCDAAVHEESYEIRFDGVPVDECYAKSVTRRLAKIKSAVSNGAHTVKGLTTYLDAVNMSMIQNTQKLEGWSQQLDLVTADLLLSSRVLSSTECTKPAMATIANQMSEDVCQLILNDKINVINSMKSHSSLAFQ

stoichiometry N (recombinant XRN-2): 1
B2: recombinant PAXT-1 (natural protein, C. elegans, UniProt Q21738 1-335, looked up)
chain: B1 chain
